Measured values reported in paper PMC4094278, “The Dictyostelium discoideum RACK1 orthologue has roles in growth and development” (Cell Communication and Signaling : CCS, 2014).

Target: the molecule itself
Assay: cross-linking; 5-10 μg/100 μl recombinant protein in 1 x PBS, pH 7.4, room temperature, 0.001% glutaraldehyde, 5, 10 and 20 min, stopped with 0.1 M glycine; SDS-PAGE and western blot with anti-DdRACK1 antibodies; dimers and oligomers also seen without glutaraldehyde

B1: recombinant DdRACK1 full length protein cleaved from the GST part (natural protein, D. discoideum, UniProt P46800 1-329, looked up)
chain: MEQQKAPQVTYLEVGSLVGHNGFVTSIAVSPENPDTIISSSRDKTVMVWQLTPTDATSPGKAHRSLKGHSHFVQDVVISHDGQFALSGSWDNTLRLWDITKGVSTRLFKGHTQDVMSVAFSSDNRQIISGSRDATIKVWNTLGECKFTLEGPEAHQDWVSCIRFSPNTPTIVSGSWDNKVKIWDIKSFKCNHTLTDHTGYVNTVTISPDGSLCASGGKDTFACLWELSSGKPLYKLEARNTINALAFSPNKYWLSAATDDKIIIWDLLTKQVLAEIVPEVKEQAFDSKKKKESKPKAPACLSLAWSADGSVLYAGYNDGLIRVYKSSSQ
notes: D. discoideum RACK1 (GpbB), 329 amino acids; Cloned in pGEX-4T-1; cleaved with thrombin; also called GpbB; D. discoideum RACK1; source: E. coli XL1 Blue, purified (GST-Sepharose, thrombin cleavage, DE-52 anion exchange)
  binding result: binds
